From publication PMC5906670, “Structural basis of epilepsy-related ligand–receptor complex LGI1–ADAM22” (Nature Communications, 2018)

B1: LGI1 (wild type, pull-down with ADAM22/23 ECD-FLAG) [human] / ADAM22 ECD-FLAG [human] (parent complex)
chain 1: KKPAKPKCPAVCTCTKDNALCENARSIPRTVPPDVISLSFVRSGFTEISEGSFLFTPSLQLLLFTSNSFDVISDDAFIGLPHLEYLFIENNNIKSISRHTFRGLKSLIHLSLANNNLQTLPKDIFKGLDSLTNVDLRGNSFNCDCKLKWLVEWLGHTNATVEDIYCEGPPEYKKRKINSLSSKDFDCIITEFAKSQDLPYQSLSIDTFSYLNDEYVVIAQPFTGKCIFLEWDHVEKTFRNYDNITGTSTVVCKPIVIETQLYVIVAQLFGGSHIYKRDSFANKFIKIQDIEILKIRKPNDIETFKIENNWYFVVADSSKAGFTTIYKWNGNGFYSHQSLHAWYRDTDVEYLEIVRTPQTLRTPHLILSSSSQRPVIYQWNKATQLFTNQTDIPNMEDVYAVKHFSVKGDVYICLTRFIGDSKVMKWGGSSFQDIQRMPSRGSMVFQPLQINNYQYAILGSDYSFTQVYNWDAEKAKFVKFQELNVQAPRSFTHVSINKRNFLFASSFKGNTQIYKHVIVDLSA
chain 2: SKRQLRRYPRNVEEETKYIELMIVNDHLMFKKHRLSVVHTNTYAKSVVNMADLIYKDQLKTRIVLVAMETWATDNKFAISENPLITLREFMKYRRDFIKEKSDAVHLFSGSQFESSRSGAAYIGGICSLLKGGGVNEFGKTDLMAVTLAQSLAHNIGIISDKRKLASGECKCEDTWSGCIMGDTGYYLPKKFTQCNIEEYHDFLNSGGGACLFNKPSKLLDPPECGNGFIETGEECDCGTPAECVLEGAECCKKCTLTQDSQCSDGLCCKKCKFQPMGTVCREAVNDCDIRETCSGNSSQCAPNIHKMDGYSCDGVQGICFGGRCKTRDRQCKYIWGQKVTASDKYCYEKLNIEGTEKGNCGKDKDTWIQCNKRDVLCGYLLCTNIGNIPRLGELDGEITSTLVVQQGRTLNCSGGHVKLEEDVDLGYVEDGTPCGPQMMCLEHRCLPVASFNFSTCLSSKEGTICSGNGVCSNELKCVCNRHWIGSDCNTYFPHNDDAKTGITLSG

Variants of: B1
Test: pull-down; anti-FLAG antibody agarose; proteins secreted from HEK293T cells; n = 4 independent experiments; read off a plot

percent of parent	Variant
~85 % of WT	chain 1 KKPAKPKCPAVCTCTKDNALCENARSIPRTVPPDVISLSFVRSGFTEISEGSFLFTPSLQLLLFTSNSFDVISDDAFIGLPHLEYLFIENNNIKSISRHTFRGLKSLIHLSLANNNLQTLPKDIFKGLDSLTNVDLRGNSFNCDCKLKWLVEWLGHTNATVEDIYCEGPPEYKKRKINSLSSKDFDCIITEFAKSQDLPYQSLSIDTFSYLNDEYVVIAQPFTGKCIFLEWDHVEKTFRNYDNITGTSTVVCKPIVIETQLYVIVAQLFGGSHIYKRDSFANKFIKIQDIEILKIAKPNDIETFKIENNWYFVVADSSKAGFTTIYKWNGNGFYSHQSLHAWYRDTDVEYLEIVRTPQTLRTPHLILSSSSQRPVIYQWNKATQLFTNQTDIPNMEDVYAVKHFSVKGDVYICLTRFIGDSKVMKWGGSSFQDIQRMPSRGSMVFQPLQINNYQYAILGSDYSFTQVYNWDAEKAKFVKFQELNVQAPRSFTHVSINKRNFLFASSFKGNTQIYKHVIVDLSA [chain 1 R296A]
~9 % of WT	chain 1 KKPAKPKCPAVCTCTKDNALCENARSIPRTVPPDVISLSFVRSGFTEISEGSFLFTPSLQLLLFTSNSFDVISDDAFIGLPHLEYLFIENNNIKSISRHTFRGLKSLIHLSLANNNLQTLPKDIFKGLDSLTNVDLRGNSFNCDCKLKWLVEWLGHTNATVEDIYCEGPPEYKKRKINSLSSKDFDCIITEFAKSQDLPYQSLSIDTFSYLNDEYVVIAQPFTGKCIFLEWDHVEKTFRNYDNITGTSTVVCKPIVIETQLYVIVAQLFGGSHIYKRDSFANKFIKIQDIEILKIRKPNDIETFKIENNWYFVVADSSKAGFTTIYKWNGNGFYSHQSLHAWYRDTDVEYLEIVRTPQTLRTPHLILSSSSQRPVIYQWNKATQLFTNQTDIPNMEDVYAVKHFSVKGDVYICLTRFIGDSKVMKWGGSSFQDIQRMPSRGSAVFQPLQINNYQYAILGSDYSFTQVYNWDAEKAKFVKFQELNVQAPRSFTHVSINKRNFLFASSFKGNTQIYKHVIVDLSA [chain 1 M443A]
~33 % of WT	chain 1 KKPAKPKCPAVCTCTKDNALCENARSIPRTVPPDVISLSFVRSGFTEISEGSFLFTPSLQLLLFTSNSFDVISDDAFIGLPHLEYLFIENNNIKSISRHTFRGLKSLIHLSLANNNLQTLPKDIFKGLDSLTNVDLRGNSFNCDCKLKWLVEWLGHTNATVEDIYCEGPPEYKKRKINSLSSKDFDCIITEFAKSQDLPYQSLSIDTFSYLNDEYVVIAQPFTGKCIFLEWDHVEKTFRNYDNITGTSTVVCKPIVIETQLYVIVAQLFGGSHIYKRDSFANKFIKIQDIEILKIRKPNDIETFKIENNWYFVVADSSKAGFTTIYKWNGNGFYSHQSLHAWYADTDVEYLEIVRTPQTLRTPHLILSSSSQRPVIYQWNKATQLFTNQTDIPNMEDVYAVKHFSVKGDVYICLTRFIGDSKVMKWGGSSFQDIQRMPSRGSMVFQPLQINNYQYAILGSDYSFTQVYNWDAEKAKFVKFQELNVQAPRSFTHVSINKRNFLFASSFKGNTQIYKHVIVDLSA [chain 1 R344A]
~15 % of WT	chain 1 KKPAKPKCPAVCTCTKDNALCENARSIPRTVPPDVISLSFVRSGFTEISEGSFLFTPSLQLLLFTSNSFDVISDDAFIGLPHLEYLFIENNNIKSISRHTFRGLKSLIHLSLANNNLQTLPKDIFKGLDSLTNVDLRGNSFNCDCKLKWLVEWLGHTNATVEDIYCEGPPEYKKRKINSLSSKDFDCIITEFAKSQDLPYQSLSIDTFSYLNDEYVVIAQPFTGKCIFLEWDHVEKTFRNYDNITGTSTVVCKPIVIETQLYVIVAQLFGGSHIYKRDSFANKFIKIQDIEILKIAAPNDIETFKIENNWYFVVADSSKAGFTTIYKWNGNGFYSHQSLHAWYRDTDVEYLEIVRTPQTLRTPHLILSSSSQRPVIYQWNKATQLFTNQTDIPNMEDVYAVKHFSVKGDVYICLTRFIGDSKVMKWGGSSFQDIQRMPSRGSMVFQPLQINNYQYAILGSDYSFTQVYNWDAEKAKFVKFQELNVQAPRSFTHVSINKRNFLFASSFKGNTQIYKHVIVDLSA [chain 1 R296A, chain 1 K297A]
~8 % of WT	chain 1 KKPAKPKCPAVCTCTKDNALCENARSIPRTVPPDVISLSFVRSGFTEISEGSFLFTPSLQLLLFTSNSFDVISDDAFIGLPHLEYLFIENNNIKSISRHTFRGLKSLIHLSLANNNLQTLPKDIFKGLDSLTNVDLRGNSFNCDCKLKWLVEWLGHTNATVEDIYCEGPPEYKKRKINSLSSKDFDCIITEFAKSQDLPYQSLSIDTFSYLNDEYVVIAQPFTGKCIFLEWDHVEKTFRNYDNITGTSTVVCKPIVIETQLYVIVAQAFGGSHIYKRDSFANKFIKIQDIEILKIRKPNDIETFKIENNWYFVVADSSKAGFTTIYKWNGNGFYSHQSLHAWYRDTDVEYLEIVRTPQTLRTPHLILSSSSQRPVIYQWNKATQLFTNQTDIPNMEDVYAVKHFSVKGDVYICLTRFIGDSKVMKWGGSSFQDIQRMPSRGSMVFQPLQINNYQYAILGSDYSFTQVYNWDAEKAKFVKFQELNVQAPRSFTHVSINKRNFLFASSFKGNTQIYKHVIVDLSA [chain 1 L268A]
